Measured values taken from article PMC10696883, “Discovery of a non-canonical GRHL1 binding site using deep convolutional and recurrent neural networks”.

Target: T1, GRHL1 DNA-binding domain (UniProt Q9NZI5 248-485)
T1 sequence: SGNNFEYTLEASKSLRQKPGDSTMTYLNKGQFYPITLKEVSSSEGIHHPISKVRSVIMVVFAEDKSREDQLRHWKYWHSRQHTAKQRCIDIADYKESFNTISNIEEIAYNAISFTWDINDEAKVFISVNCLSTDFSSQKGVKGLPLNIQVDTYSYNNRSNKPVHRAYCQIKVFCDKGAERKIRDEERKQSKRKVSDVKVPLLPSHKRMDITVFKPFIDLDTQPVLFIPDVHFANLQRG
Assay: ITC; ITC: 20 mM HEPES-NaOH pH 7.2, 125 mM NaCl, 2 mM DTT; ~10 µM dsDNA in cell, GRHL1 165 or 200 µM (Methods: 156 or 200 µM) in syringe; triplicates; temperature not stated
Conditions: protein: recombinant; tags: His6 tag removed by TEV; chain copies: 2; blunt

B1: Novel (dsDNA)
DNA 1: AGGTTTTTCCACTTTGGGGC
DNA 2: GCCCCAAAGTGGAAAAACCT
  Kd: 180 ± 80 nM

B2: Pos_Ctrl_V3 (dsDNA)
DNA 1: GGGCAAAACCGTTTTTGCGG
DNA 2: CCGCAAAAACGGTTTTGCCC
  Kd: 4350 ± 5400 nM

B3: Pos_Ctrl_V2 (dsDNA)
DNA 1: GGGCAAAACCGCTTTTGCGG
DNA 2: CCGCAAAAGCGGTTTTGCCC
  Kd: 1540 ± 300 nM

B4: Novel_V3 (dsDNA)
DNA 1: AGGTTTTTCCATTTTGGGGC
DNA 2: GCCCCAAAATGGAAAAACCT
  binding result: no binding

B5: Pos_Ctrl_V1 (dsDNA)
DNA 1: GGGCAAAACCGATTTTGCGG
DNA 2: CCGCAAAATCGGTTTTGCCC
  Kd: 3400 ± 2200 nM

B6: Pos_Ctrl (dsDNA)
DNA 1: GGGCAAAACCGGTTTTGCGG
DNA 2: CCGCAAAACCGGTTTTGCCC
  Kd: 110 ± 30 nM

B7: Novel_V2 (dsDNA)
DNA 1: AGGTTTTTCCAGTTTGGGGC
DNA 2: GCCCCAAACTGGAAAAACCT
  Kd: 210 ± 60 nM

B8: Neg_Ctrl (dsDNA)
DNA 1: GCAAAAAGGAGTCATTGGTG
DNA 2: CACCAATGACTCCTTTTTGC
  binding result: no binding

B9: Novel_V1 (dsDNA)
DNA 1: AGGTTTTTCCAATTTGGGGC
DNA 2: GCCCCAAATTGGAAAAACCT
  binding result: no binding
